# Values quoted from earlier work in paper PMC7671103.
# pKd: −log10 of the molar value. “And” between values parts separate entries of the source, which are not always exact repeats. Identical values can stand only once.
# Biological target: CoV main protease (Mpro) (SARS-CoV) (UniProt P0C6X7)
substance,measurement,value
CoV main protease (Mpro) (from UniProt P0C6X7),pKd,6.10 and 5.70
